The target in one assay is CCR5 (human) (UniProt P51681). As to the kind of experiment: cell-based or functional assay.
For another assay, the target named is CD4 (human) (UniProt P01730). As to the kind of experiment: cell-based or functional assay.

Here are results for two substances from patent publication US20150057331A1.

With Monomeric gp120BaL (R5-tropic), the ATP release from primary human macrophages (luminescence assay), peak fold change against vehicle with CCR5 (human) and with CD4 (human) was 1.8 fold throughout.
Regarding Monomeric gp120SF162 (R5-tropic), the ATP release from primary human macrophages (luminescence assay), peak fold change against vehicle in the assay with CCR5 (human) and in the assay with CD4 (human) was 1.8 fold each time.
